Experimental findings from the RNAGym collection of RNA variant scans (doi:10.7554/elife.90254) are described below.

B1: OR4K15 (parent)
chain: GUUAACGGUCAUAGGCCAUGGAAACUAGGAGCACCAUUUCGCUGCCAGUGAAGAAAUGAACAAAGAAAAUCUGGGCCAGGCAGGCAUCAAAAGAAAUAGUCUUGCGCUCAACCAGAAAGUCUGUAAUCAUUUUAAGGGUA

The variants in the data set derive from B1. The experiment in a line: self-cleavage, relative activity (ratio to wild type); higher = more cleavage; in vitro, sequencing; the parent is a self-cleaving ribozyme.
For A117G U122C, the self-cleavage was determined as 1.05.

On to U26G A52C, for which the self-cleavage worked out at 0.7.

For the variant A60C A89C, the self-cleavage was found to be 1.8.

Take A82U U131C: the self-cleavage turned out to be 0.24.

Take U57G A95G: the self-cleavage worked out at 2.15.

As for A22C U38C, the self-cleavage came out at 2.55.

Regarding A59G A140G, the self-cleavage is 1.25.

Turning to A68U U103C, the self-cleavage worked out at 1.42.

Regarding A51G A55C, the self-cleavage was 0.42.

For G21A U127C, the self-cleavage was found to be 1.32.

A24C A59U: the self-cleavage was found to be 1.57.

Consider A82U C105U, for which the self-cleavage came out at 0.01.

With U72A U100C, the self-cleavage is 0.4.

Consider C25U U132C, for which the self-cleavage was determined as 1.36.

On to A33G C112G, for which the self-cleavage was found to be 0.02.

Turning to A5G G48A, the self-cleavage was 0.77.

Consider A27G A68G, for which the self-cleavage came to 1.13.

As for G8A C32U, the self-cleavage was 2.12.

Turning to A66G A114U, the self-cleavage was found to be 0.08.

For the variant A52C U108C, the self-cleavage amounted to 0.03.

Take A68C A94G: the self-cleavage came to 1.69.

For U72C C105A, the self-cleavage is 0.03.

Consider A47U U122C, for which the self-cleavage worked out at 0.67.

Consider U9A U97A, for which the self-cleavage was 1.03.

Take U122C A140G: the self-cleavage came to 1.32.

For the variant A22G U49G, the self-cleavage turned out to be 1.39.

In the case of U49A A60G, the self-cleavage came out at 1.32.

In the case of U9G G83A, the self-cleavage was found to be 1.07.

With A18U A30U, the self-cleavage amounted to 1.57.

For U39C C77U, the self-cleavage was 1.75.

Turning to U19A A36G, the self-cleavage came out at 1.19.

In the case of U9C A135U, the self-cleavage came out at 0.57.

Take A95U G104A: the self-cleavage is 0.05.

In the case of G14C A30G, the self-cleavage is 1.66.

Consider A13G G137U, for which the self-cleavage is 1.06.

A23U U124C: the self-cleavage worked out at 1.64.

Consider A23G U97A, for which the self-cleavage worked out at 1.48.

U39C C61U: the self-cleavage amounted to 2.41.

Turning to U26C A67G, the self-cleavage was determined as 1.81.

For A52G A116C, the self-cleavage was 0.11.

U38C C113U: the self-cleavage stood at 0.14.

For A55U U124A, the self-cleavage came to 1.07.

As for U87C U108G, the self-cleavage came out at 0.02.

Turning to C32A U132C, the self-cleavage worked out at 0.85.

Take A11U U39C: the self-cleavage is 1.11.

In the case of G75C A117G, the self-cleavage was 0.15.

For the variant A36G A54G, the self-cleavage was found to be 0.96.

Take A78G U102C: the self-cleavage amounted to 0.31.

For A62C U122C, the self-cleavage came out at 1.33.

G48A U124A: the self-cleavage was found to be 0.41.

Regarding A68C A118G, the self-cleavage came to 1.84.

Turning to A23U A27G, the self-cleavage worked out at 1.16.

Turning to G21U U37A, the self-cleavage came out at 1.06.

As to G15C U43C, the self-cleavage was 1.93.

Take A47G A90U: the self-cleavage was found to be 0.8.

On to A11G A134G, for which the self-cleavage came to 0.88.

Regarding C35U U122A, the self-cleavage turned out to be 1.26.

For the variant U39C A66G, the self-cleavage is 0.08.

A30G A116G: the self-cleavage was determined as 0.66.

With A68G A111G, the self-cleavage was 0.01.

Turning to A51U A125U, the self-cleavage stood at 1.64.

With A51U A125G, the self-cleavage came to 0.42.

Turning to U49A A78U, the self-cleavage is 0.33.

Take A52G A95U: the self-cleavage was determined as 1.37.

A60G A125U: the self-cleavage was 2.64.

With A36U A96G, the self-cleavage was 1.74.

For the variant U9A A59G, the self-cleavage came out at 1.12.

Take A68G A135G: the self-cleavage stood at 1.23.

Take C61U U120A: the self-cleavage came out at 2.02.

Consider A89C A110G, for which the self-cleavage was found to be 0.18.

On to A63U A90G, for which the self-cleavage was 1.76.

For the variant C128A U139C, the self-cleavage came to 1.05.

Take G74C A96G: the self-cleavage is 0.29.

Consider U49G U102C, for which the self-cleavage worked out at 1.95.

As for A18G A111G, the self-cleavage came to 0.03.

For A5U U70A, the self-cleavage was 1.23.

On to U37C U108C, for which the self-cleavage turned out to be 0.01.

For the variant G74C A140G, the self-cleavage was found to be 0.23.

Regarding U70C C109A, the self-cleavage was found to be 0.16.

For A54G A55C, the self-cleavage came to 1.94.

As for A67U A95G, the self-cleavage worked out at 2.49.

With A4G U124C, the self-cleavage came to 0.5.

Consider A56C A117U, for which the self-cleavage turned out to be 0.96.

On to C45A U131A, for which the self-cleavage amounted to 1.29.

For A33C A89G, the self-cleavage was determined as 1.31.

In the case of U19C U38C, the self-cleavage worked out at 1.22.

As for A86G U133C, the self-cleavage is 2.05.

As to A63G A86C, the self-cleavage is 1.21.

For A52G U87C, the self-cleavage was determined as 1.35.

Consider G83A A86U, for which the self-cleavage was determined as 2.81.

For the variant A56G A96U, the self-cleavage was 1.64.

As to A66U U70A, the self-cleavage is 0.62.

As to A27U U132A, the self-cleavage was 1.42.

On to A11G A90U, for which the self-cleavage was determined as 1.69.

Take A60C G123A: the self-cleavage worked out at 1.98.

As to A89G U131A, the self-cleavage was 0.3.

As to C17U A67G, the self-cleavage was 1.26.

In the case of U9G A96G, the self-cleavage was determined as 1.46.

For the variant U131C G137A, the self-cleavage amounted to 0.07.

On to U12C A13U, for which the self-cleavage worked out at 0.95.

Consider A66G A134G, for which the self-cleavage worked out at 1.66.

For the variant C105A C112U, the self-cleavage stood at 0.

Regarding G1A U43C, the self-cleavage was determined as 2.15.

With U72C A129U, the self-cleavage amounted to 0.07.

Turning to U124G A125U, the self-cleavage turned out to be 1.25.

For U57C A68G, the self-cleavage turned out to be 0.95.

With A33U U100C, the self-cleavage amounted to 1.84.

As for A13G G136A, the self-cleavage came out at 0.95.

U108C C109U: the self-cleavage amounted to 0.01.

Consider A98C U122C, for which the self-cleavage was determined as 2.2.

As to U49C U124C, the self-cleavage amounted to 0.71.

As to A13U A125U, the self-cleavage amounted to 1.71.

Turning to A60U G106A, the self-cleavage was 0.

Regarding A24U A66G, the self-cleavage was found to be 1.66.

U19C A91U: the self-cleavage is 1.37.

On to U19C G44A, for which the self-cleavage turned out to be 0.78.

In the case of A51G U133A, the self-cleavage is 1.15.

For G44A A110G, the self-cleavage is 0.14.

C76A A96G: the self-cleavage came out at 0.19.

For the variant A78G A98U, the self-cleavage stood at 0.39.

Turning to A68G U130C, the self-cleavage worked out at 1.13.

On to A18U A91G, for which the self-cleavage turned out to be 1.16.

For U122A, the self-cleavage was found to be 1.21.

With A67G A96G, the self-cleavage turned out to be 1.53.

As for U72C U131C, the self-cleavage stood at 0.16.

For the variant U9C A30G, the self-cleavage was 1.13.

As to U3A A11G, the self-cleavage amounted to 1.03.

For A22G A33G, the self-cleavage came to 0.98.

As for C16A G80U, the self-cleavage came out at 0.12.

With G53A U130C, the self-cleavage came to 1.96.

On to G50A G104A, for which the self-cleavage stood at 0.1.

Turning to A11G G106A, the self-cleavage came to 0.06.

Turning to C17A U108C, the self-cleavage stood at 0.02.

As for A47G A98G, the self-cleavage stood at 0.3.

For the variant A56G A90G, the self-cleavage amounted to 1.03.

In the case of G41A U124C, the self-cleavage is 1.02.

Turning to A116U U127C, the self-cleavage was found to be 0.23.

U26A A51G: the self-cleavage was 1.15.

Take A78C U133C: the self-cleavage amounted to 0.24.

For the variant G20A A118G, the self-cleavage was 0.79.

Consider U57A C105U, for which the self-cleavage came to 0.04.

On to U3C U100C, for which the self-cleavage turned out to be 1.71.

On to U9C G99U, for which the self-cleavage was found to be 0.63.

As for U2A A18U, the self-cleavage is 1.37.

Take A52G C105A: the self-cleavage worked out at 0.02.

Turning to A33G A125G, the self-cleavage is 0.23.

As to C32A C128A, the self-cleavage stood at 0.81.

Turning to A82U G138A, the self-cleavage came out at 0.17.

On to A56C A116U, for which the self-cleavage is 0.13.

On to A54G A94C, for which the self-cleavage was determined as 1.32.

As to U100C A117G, the self-cleavage came out at 2.56.

On to U9C A54G, for which the self-cleavage stood at 1.53.

With U57A A118G, the self-cleavage stood at 1.37.

As for A5G A68G, the self-cleavage came out at 0.89.

Take U3C A55G: the self-cleavage was found to be 1.1.

As for A24G A52G, the self-cleavage came to 1.44.

Consider A51U A91G, for which the self-cleavage is 0.5.

As for A60U U127C, the self-cleavage worked out at 0.92.

As to G15A U102C, the self-cleavage amounted to 1.98.

As for G79C U97A, the self-cleavage stood at 0.05.

As to A13G G41U, the self-cleavage is 1.28.

Take A54U U108C: the self-cleavage came to 0.01.

In the case of G15C U49C, the self-cleavage came to 1.78.

As for U39A A78G, the self-cleavage turned out to be 0.35.

In the case of A82C A94G, the self-cleavage came out at 0.19.

Regarding A140C, the self-cleavage is 1.4.

For the variant A60G C105G, the self-cleavage was 0.01.
